{
  "source": "paper PMC11844185",
  "about": "(Journal of Translational Medicine, 2025)",
  "binders": {"B1": {"name": "2YYQH9 (antibody, V domains shown)", "VH": "EVQLVESGGGLIQPGGSLRLSCAASGVTVIRNYMTWVRQAPGKGLEWVSVIYPGGTTYYADSVKGRFTISRDSSKNTLYLQMNSLRAEDAAVYFCARAYGDYYFDLWGQGTLLTVSS", "VL": "EMVMTQSPASLSLSPGERATLSCRASQGVDSSYLAWYQQKPGQAPRLLMYGASSRATGIPDRFSGSGYGTDFTLTISRVEPEDFAVYYCQVAFTFGQGTKVEIK"}, "B2": {"name": "SWA9 (antibody, V domains shown)", "VH": "QMQLVQSGPEVKKPGTSVKVSCKASGFTFTNSAMQWVRQARGQRLEWVGWIVVASGNANSARRFHDRVTITSDMSTSTAYLELSSLRSEDTAVYYCALNHCSNTTCLDGFDIWGQGTMVSVSS", "VL": "EIVLTQSPVTLSLSPGERATLSCRASQSVRNSLLAWYQQKPGQAPRLLIYAASSRATGIPDRFSGSGSGTDFTLTISRLEPEDFVVYYCQQHGSSPPWTFGQGTKVEFK"}, "B3": {"name": "SWC11 (antibody, V domains shown)", "VH": "EVQLVESGGGLIQPGGSLRLSCAASEFIVSRNYMSWVRQAPGTGLEWVSVIYPGGSTFYADSVKGRFTISRDNSKNTLYLQMDSLRVEDTAVYYCARDYGDFYFDYWGQGTLVTVSS", "VL": "EIVMTQSPVSLSVSPGERATLSCRASQGVASNLAWYQQKAGQAPRLLIYGASTRATGIPARFSGSGSGTEFTLTISTLQSEDSAVYYCQQYNDRPRTFGQGTKLEIK"}},
  "data": [
    {"target": "T1, SARS-CoV-2 prototype RBD-His tag protein (Severe acute respiratory syndrome …, UniProt P0DTC2)", "assay": "SPR", "units": {"Kd": "nM"}, "values": [
      {"binder": "B1", "Kd": 0.428},
      {"binder": "B2", "Kd": 0.345},
      {"binder": "B3", "Kd": 0.627}
    ]},
    {"target": "T1, SARS-CoV-2 prototype RBD-His tag protein", "assay": "cell-based or functional assay", "units": {"neutralisation of SARS-CoV-2 prototype pseudovirus, IC50": "µg/mL"}, "values": [
      {"binder": "B1", "neutralisation of SARS-CoV-2 prototype pseudovirus, IC50": "< 0.1"},
      {"binder": "B2", "neutralisation of SARS-CoV-2 prototype pseudovirus, IC50": "< 0.1"},
      {"binder": "B3", "neutralisation of SARS-CoV-2 prototype pseudovirus, IC50": "< 0.1"}
    ]}
  ]
}
